Read-outs that look alike come from different tables or passages of the source.
Key:
[1] = target: T1, human Claudin 18.2 (CLDN18.2) (human, UniProt P56856-2 1-261); assay: cell-based or functional assay
[2] = target: T1, human Claudin 18.2 (CLDN18.2); assay: cell-based or functional assay; remark: listed apart in the source
[3] = target: T1, human Claudin 18.2 (CLDN18.2); assay: FACS on CHO-CLDN18.2 cells
[4] = target: T1, human Claudin 18.2 (CLDN18.2); assay: cell-based or functional assay; remark: listed apart in the source
[5] = target: T1, human Claudin 18.2 (CLDN18.2); assay: cell-based or functional assay; remark: listed apart in the source
[6] = target: T2, CLDN18.2 endogenously expressed on SNU620 gastric cancer cells (UniProt P56856-2 1-261, limits assumed); assay: FACS Exp. 3, SNU620 cells
T2 construct: whole, on cells; also called SU620

[7] = target: T1, human Claudin 18.2 (CLDN18.2); assay: FACS Exp. 1, MFI ratio CHO-18.2 over CHO-18.1
[8] = target: T1, human Claudin 18.2 (CLDN18.2); assay: FACS Exp. 2, MFI ratio CHO-18.2 over CHO-18.1
[9] = target: T1, human Claudin 18.2 (CLDN18.2); assay: FACS on CHO-CLDN18.2 cells; remark: listed apart in the source
[10] = target: T1, human Claudin 18.2 (CLDN18.2); assay: FACS on CHO-CLDN18.2 cells; remark: listed apart in the source

Binder | % ADCC @ 6.67 nM, NCI-N87-CLDN18.2, FcR-TANK [1] [%] | ADCC EC50, NCI-N87-CLDN18.2, FcR-TANK [1] [nM] | % specific cytotoxicity @ 6.67 nM, NUGC4-CLDN18.2, PBMC [2] [%] | ADCC EC50, NUGC4-CLDN18.2 cells, PBMC (1 donor) [2] [nM] | EC50 [3] [nM] | CDC EC50, human serum, CHO-CLDN18.2 [4] [nM] | ADCC EC50, NCI-N87-18.2 cells, FcR-TANK effectors [5] [nM] | MFI_SNU620 (@30 ug/ml) [6] [MFI] | MFI_CHO-18.2/CHO-18.1 (@30 ug/ml) [7] | MFI_CHO-18.2/CHO-18.1 (@30 ug/ml) [8] | EC50 [9] [nM] | ADCC EC50, NUGC4-CLDN18.2 cells, PBMC [2] [nM] | EC50 [10] [nM]
282A12F3 (T62A) (antibody, human IgG1, kappa, V domains shown, chimeric human IgG1, PTM site removed; also called 282A12F3-VH-NSA (T62A); 282A12 (T62A)) VH: QVQLKESGPVLVQPSQTLSLTCTVAGFSLTSYNVYWVRQPPGKGLEWMGVIWNTGATRYNSALKSRLSISKDTSKSQVFLKMNSLQTEDTATYYCARDSAMPAIPFAYWGQGTLVTVSS VL: DIVMTQSPSSLAVSAGETVTINCKSSQSLFGSVRQKNYLAWYQQKPGQSPKLLIYLASTRESGVPDRFIGSGSGTDFTLTISSVQAEDLAKYYCQQYYDIPWTFGGGTKLELKR | 14.6 | 2.25 | 21 | 9.52 | 4.45 | 10.4 | 73.2 | 1520 | 811 | 768 |  |  | 
364D1A7-VL-S32V (antibody, human IgG1, kappa, V domains shown, chimeric human IgG1, PTM site removed; also called 364D1A7-VL-32V) VH: DVQLVESGGGLVQPGGSRKLSCAASGFTFSSFGMHWVRQAPEKGLEWVAYISSGSGSIYYADTVKGRFTLSRDNPKNTLFLQMTSLRSEDTAIYYCATSYYYGNALEYWGQGTSVTVSS VL: DVVLTQSPSSLTVTEGEKVSMSCKSSQSLFNVGNQKNYLTWYQQKPGQTPTLLIYWASTRKSGVPDRFTGSGSGTDFTLTINTVQAEDLAVYYCQNVYSYPLTFGAGTKLDLKR | 15.3 | 0.34 | 26.6 |  |  | 1.49 | 12 |  |  |  | 3.87 | 6.36 | 
413H9F8-VL-S32V (antibody, human IgG1, kappa, V domains shown, chimeric human IgG1, PTM site removed; also called 413H9F8-VL-32V; 413H9F8-VL-532V) VH: DVQLVESGGGSVQPGGSRRLSCAASGFTFSSFGMHWVRQAPEKGLEWVAYISSGSSPIYYVDKLKGRFTVSRDNPKNTLFLQMTSLRSEDTAMYYCARAGYAVRNALDYWGQGTSITVSS VL: DIVMTQSPSSLSVSVGEKVTLSCKSSQSLLNVGNQKNYLAWYQQKTGQPPKLLIYGASTRESGVPDRFIGSGSGTDFTLTISSVQAEDLAVYFCQNDLFYPLTFGAGTKLELKR | 13.9 | 0.33 | 31.4 |  | 1.84 | 0.76 | 7.84 |  |  |  |  | 7.69 | 2.14
reference antibody 175D10 (xi175D10) (antibody, human IgG1, kappa, V domains shown, Fc variant D356/L358; also called chimeric 175D10) VH: QVQLQQPGAELVRPGASVKLSCKASGYTFTSYWINWVKQRPGQGLEWIGNIYPSDSYTNYNQKFKDKATLTVDKSSSTAYMQLSSPTSEDSAVYYCTRSWRGNSFDYWGQGTTLTVSS VL: DIVMTQSPSSLTVTAGEKVTMSCKSSQSLLNSGNQKNYLTWYQQKPGQPPKLLIYWASTRESGVPDRFTGSGSGTDFTLTISSVQAEDLAVYYCQNDYSYPFTFGSGTKLEIKR | 11.9 |  | 16.8 |  | 9.32 | 2.26 | 96.4 |  | 1030 | 1390 | 7.24 | 9.21 | 7.52
357B8F8-VH-S61I-VL-S32I (antibody, human IgG1, kappa, V domains shown) VH: QVQLKESGPGLVAPSQSLSITCTVSGFSLTSYGVHWVRQPPGKGLEWLGVIWPGGNTNYNIALMSRLSISKDNSKSQVFLKMNSLQTDDTAMYYCARDRRLAMDYWGQGTSVTVSS VL: DIVMTQSPSSLTVTAGEKVTMTCKSSQSLLNIGNQKNYLTWYQQKPGQPPKLLIYWASTRESGVPDRFTGSGSGTDFTLTISILQAEDLAVYYCQNDYSYPFTFGSGTKLEIKR | 2.3 | 1.81 | 19.6 |  |  |  | 159 |  |  |  |  | 4.87 | 
